Results taken from paper PMC9963377.

Biological target: tetrameric CDV attachment protein H-ectodomain (strain A75/17), with N-terminal tetrameric GCN4 motif (canine distemper virus (strain A75/17))
Experiment: cryo-EM structure

tetrameric CDV attachment protein H-ectodomain (strain A75/17), with N-terminal tetrameric GCN4 motif (domain or fragment)
stoichiometry N: 4
